Reference: patent US20220213196A1 (GRITSTONE BIO, published 2022)

Key:
[1] = target: HLA-B*35:01_… (HLA-PEPTIDE target G5), recombinant soluble complex (human, UniProt P01889 25-297 at identity 0.94); P61769 21-119, enzymatically biotinylated (BirA) for screening and functional assays); experiment: scFv PPE ELISA
[2] = target: HLA-A*01:01_… (HLA-PEPTIDE target G10), recombinant soluble complex (human, UniProt P04439-2 25-297; P61769 21-119, enzymatically biotinylated (BirA) for screening and functional assays); experiment: scFv PPE ELISA

B1: scFv G5-P1-E05 (scFv, V domains shown)
VH: QVQLVQSGAEVKKPGASVKVSCKASGYTFTSYNMHWVRQAPGQGLEWMGWINPNSGGTNYAQKFQGRVTMTRDTSTSTVYMELSSLRSEDTAVYYCARDVMDVWGQGTTVTVSS
VL: DIQMTQSPSSLSASVGDRVTITCRASQGISNYLNWYQQKPGKAPKLLIYYASSLQSGVPSRFSGSGSGTDFTLTISSLQPEDFATYYCQQTYMMPYTFGQGTKVEIK
fold binding to target pHLA over minipool of negative control pHLAs [1]: ≥ 3 fold

B2: scFv R3G10-P4C05 (scFv, V domains shown)
VH: QVQLVQSGAEVKKPGASVKVSCKASGYTFTGYYMHWVRQAPGQGLEWMGIIGPSDGSTTYAQKFQGRVTMTRDTSTSTVYMELSSLRSEDTAVYYCARAENGMDVWGQGTTVTVSS
VL: DIQMTQSPSSLSASVGDRVTITCRASQRISSYLNWYQQKPGKAPKLLIYSASTLQSGVPSRFSGSGSGTDFTLTISSLQPEDFATYYCQQSYSTPFTFGPGTKVDIK
fold binding to target pHLA over minipool of negative control pHLAs [2]: ≥ 3 fold

B3: scFv R3G10-P1F06 (scFv, V domains shown)
VH: QVQLVQSGAEVKKPGASVKVSCKASGYTFIGYYMHWVRQAPGQGLEWMGMIGPSDGSTSYAQKFQGRVTMTRDTSTSTVYMELSSLRSEDTAVYYCARDSSGLDPWGQGTLVTVSS
VL: DIQMTQSPSSLSASVGDRVTITCRASQSISNYLNWYQQKPGKAPKLLIYKASSLESGVPSRFSGSGSGTDFTLTISSLQPEDFATYYCQQSYIIPYTFGQGTKLEIK
fold binding to target pHLA over minipool of negative control pHLAs [2]: ≥ 3 fold

B4: scFv G5R4-P1D06 (scFv, V domains shown)
VH: QVQLVQSGAEVKKPGASVKVSCKASGYTFTSYDINWVRQAPGQGLEWMGWINPNSGDTKYSQKFQGRVTMTRDTSTSTVYMELSSLRSEDTAVYYCARDGTRYYGMDVWGQGTTVTVSS
VL: not shown
fold binding to target pHLA over minipool of negative control pHLAs [1]: ≥ 3 fold

B5: scFv G5-P4B02 (scFv, V domains shown)
VH: QVQLVQSGAEVKKPGASVKVSCKASGYTFTGYYMHWVRQAPGQGLEWMGWMNPNIGNTGYAQKFQGRVTMTRDTSTSTVYMELSSLRSEDTAVYYCARGIADSGSYYGNGRDYYYGMDVWGQGTTVTVSS
VL: DIVMTQSPDSLAVSLGERATINCKTSQSVLYRPNNENYLAWYQQKPGQPPKLLIYQASIREPGVPDRFSGSGSGTDFTLTISSLQAEDVAVYYCQQYYTTPYTFGQGTKLEIK
fold binding to target pHLA over minipool of negative control pHLAs [1]: ≥ 3 fold

B6: scFv R3G10-P4A02 (scFv, V domains shown)
VH: QVQLVQSGAEVKKPGASVKVSCKASGYTLSYYYMHWVRQAPGQGLEWMGMIGPSDGSTSYAQRFQGRVTMTRDTSTGTVYMELSSLRSEDTAVYYCARDTGDHFDYWGQGTLVTVSS
VL: not shown
fold binding to target pHLA over minipool of negative control pHLAs [2]: ≥ 3 fold

B7: scFv R3G10-P4G06 (scFv, V domains shown)
VH: QVQLVQSGAEVKKPGASVKVSCKASGYTLSYYYMHWVRQAPGQGLEWMGMIGPSDGSTSYAQRFQGRVTMTRDTSTGTVYMELSSLRSEDTAVYYCARDTGDHFDYWGQGTLVTVSS
VL: not shown
notes: VH and VL as printed equal those of R3G10-P4A02
fold binding to target pHLA over minipool of negative control pHLAs [2]: ≥ 3 fold

B8: scFv G5R4-P2B10 (scFv, V domains shown)
VH: QVQLVQSGAEVKKPGASVKVSCKASGGTFSSYAISWVRQAPGQGLEWMGWMNPDSGSTGYAQRFQGRVTMTRDTSTSTVYMELSSLRSEDTAVYYCARGHSSGWYYYYGMDVWGQGTTVTVSS
VL: not shown
fold binding to target pHLA over minipool of negative control pHLAs [1]: ≥ 3 fold

B9: scFv R3G10-P4E07 (scFv, V domains shown)
VH: QVQLVQSGAEVKKPGSSVKVSCKASGYTFTGYYMHWVRQAPGQGLEWMGRISPSDGSTTYAPKFQGRVTITADESTSTAYMELSSLRSEDTAVYYCARDMGDAFDIWGQGTTVTVSS
VL: not shown
fold binding to target pHLA over minipool of negative control pHLAs [2]: ≥ 3 fold

B10: scFv G5-P1B12 (scFv, V domains shown)
VH: EVQLLESGGGLVQPGGSLRLSCAASGFTFSNSDMNWVRQAPGKGLEWVASISSSGGYINYADSVKGRFTISRDNSKNTLYLQMNSLRAEDTAVYYCAKVNWNDGPYFDYWGQGTLVTVSS
VL: DIQMTQSPSSLSASVGDRVTITCRASQSISSWLAWYQQKPGKAPKLLIYAASSLQSGVPSRFSGSGSGTDFTLTISSLQPEDFATYYCQQANSFPLTFGGGTKVEIK
fold binding to target pHLA over minipool of negative control pHLAs [1]: ≥ 3 fold

B11: scFv G5-P3G08 (scFv, V domains shown)
VH: QVQLVQSGAEVKKPGASVKVSCKASGYIFRNYPMHWVRQAPGQGLEWMGWINPDSGGTKYAQKFQGRVTMTRDTSTSTVYMELSSLRSEDTAVYYCARDNGVGVDYWGQGTLVTVSS
VL: DIQMTQSPSSLSASVGDRVTITCRASQGISNYLAWYQQKPGKAPKLLIYAASSLQSGVPSRFSGSGSGTDFTLTISSLQPEDFATYYCQQSYITPYTFGQGTKLEIK
fold binding to target pHLA over minipool of negative control pHLAs [1]: ≥ 3 fold

B12: scFv R3G10-P1H08 (scFv, V domains shown)
VH: QVQLVQSGAEVKKPGASVKVSCKASGVTFSTSAISWVRQAPGQGLEWMGWISPYNGNTDYAQMLQGRVTMTRDTSTSTVYMELSSLRSEDTAVYYCARDAHQYYDFWSGYYSGTYYYGMDVWGQGTTVTVSS
VL: DIQMTQSPSSLSASVGDRVTITCRASQGISNYLAWYQQKPGKAPKLLIYSASNLQSGVPSRFSGSGSGTDFTLTISSLQPEDFATYYCQQAYSFPWTFGQGTKVEIK
fold binding to target pHLA over minipool of negative control pHLAs [2]: ≥ 3 fold

B13: scFv G5-P1C12 (scFv, V domains shown)
VH: QVQLVQSGAEVKKPGSSVKVSCKASGGTFSNFGVSWLRQAPGQGLEWMGGIIPILGTANYAQKFQGRVTITADESTSTAYMELSSLRSEDTAVYYCATPTNSGYYGPYYYYGMDVWGQGTTVTVSS
VL: DIQMTQSPSSLSASVGDRVTITCRASQSISSWLAWYQQKPGKAPKLLIYAASTLQSGVPSRFSGSGSGTDFTLTISSLQPEDFATYYCQQSYSIPLTFGGGTKVEIK
fold binding to target pHLA over minipool of negative control pHLAs [1]: ≥ 3 fold

B14: scFv G5-P4E04 (scFv, V domains shown)
VH: QVQLVQSGAEVKKPGASVKVSCKASGGTFSSYGISWVRQAPGQGLEWMGWINPNSGVTKYAQKFQGRVTMTRDTSTSTVYMELSSLRSEDTAVYYCARGDYYFDYWGQGTLVTVSS
VL: DIQMTQSPSSLSASVGDRVTITCRASQSISRFLNWYQQKPGKAPKLLIYGASRPQSGVPSRFSGSGSGTDFTLTISSLQPEDFATYYCQQSYSTPLTFGQGTKVEIK
fold binding to target pHLA over minipool of negative control pHLAs [1]: ≥ 3 fold

B15: scFv R3G10-P4D10 (scFv, V domains shown)
VH: QVQLVQSGAEVKKPGASVKVSCKASGYTFTGYYLHWVRQAPGQGLEWMGMIGPSDGSTSYAQKFQGRVTMTRDTSTSTVYMELSSLRSEDTAVYYCARDGDAFDIWGQGTMVTVSS
VL: DIQMTQSPSSLSASVGDRVTITCRASQGISSWLAWYQQKPGKAPKLLIYDASNLETGVPSRFSGSGSGTDFTLTISSLQPEDFATYYCQQSYSTPLTFGGGTKVEIK
fold binding to target pHLA over minipool of negative control pHLAs [2]: ≥ 3 fold

B16: scFv R3G10-P2G11 (scFv, V domains shown)
VH: QVQLVQSGAEVKKPGASVKVSCKASGGTFSTHDINWVRQAPGQGLEWMGVINPSGGSAIYAQKFQGRVTMTRDTSTSTVYMELSSLRSEDTAVYYCARDRGYSYGYFDYWGQGTLVTVSS
VL: DIQMTQSPSSLSASVGDRVTITCRASQDISRYLAWYQQKPGKAPKLLIYDASNLETGVPSRFSGSGSGTDFTLTISSLQPEDFATYYCQQANSFPRTFGQGTKVEIK
fold binding to target pHLA over minipool of negative control pHLAs [2]: ≥ 3 fold

B17: scFv R3G10-P1H01 (scFv, V domains shown)
VH: QVQLVQSGAEVKKPGASVKVSCKASGYTFTGYYMHWVRQAPGQGLEWMGMIGPSDGSTSYAQKFQGRVTMTRDTSTSTVYMELSSLRSEDTAVYYCARGVGNLDYWGQGTLVTVSS
VL: DIQMTQSPSSLSASVGDRVTITCRASQSISNYLNWYQQKPGKAPKLLIYAASSLQSGVPSRFSGSGSGTDFTLTISSLQPEDFATYYCHQTYSTPLTFGQGTKVEIK
fold binding to target pHLA over minipool of negative control pHLAs [2]: ≥ 3 fold

B18: scFv R3G10-P3E04 (scFv, V domains shown)
VH: QVQLVQSGAEVKKPGASVKVSCKASGNTFIGYYVHWVRQAPGQGLEWVGIINPNGGSISYAQKFQGRVTMTRDTSTSTVYMELSSLRSEDTAVYYCARGSGDPNYYYYYGLDVWGQGTTVTVSS
VL: DIQMTQSPSSLSASVGDRVTITCQASQDISNYLNWYQQKPGKAPKLLIYAASNLQSGVPSRFSGSGSGTDFTLTISSLQPEDFATYYCQQANSLPYTFGQGTKVEIK
fold binding to target pHLA over minipool of negative control pHLAs [2]: ≥ 3 fold

B19: scFv G5R4-P1H11 (scFv, V domains shown)
VH: EVQLLESGGGLVKPGGSLRLSCAASGFTFSDYYMSWVRQAPGKGLEWVSYISSSSSYTNYADSVKGRFTISRDDSKNTLYLQMNSLKTEDTAVYYCARDVVANFDYWGQGTLVTVSS
VL: EIVMTQSPATLSVSPGERATLSCRASQSVSSNLAWYQQKPGQAPRLLIYAASARASGIPARFSGSGSGTEFTLTISSLQSEDFAVYYCQQYGSWPRTFGQGTKVEIK
fold binding to target pHLA over minipool of negative control pHLAs [1]: ≥ 3 fold

B20: scFv R3G10-P4D04 (scFv, V domains shown)
VH: QVQLVQSGAEVKKPGASVKVSCKASGYTFTGYYVHWVRQAPGQGLEWMGIIAPSDGSTNYAQKFQGRVTMTRDTSTSTVYMELSSLRSEDTAVYYCARDPGGYMDVWGKGTTVTVSS
VL: DIQMTQSPSSLSASVGDRVTITCRASQSISSYLAWYQQKPGKAPKLLIYDASKLETGVPSRFSGSGSGTDFTLTISSLQPEDFATYYCQQSYGVPTFGQGTKLEIK
fold binding to target pHLA over minipool of negative control pHLAs [2]: ≥ 3 fold

B21: scFv R3G10-P5C08 (scFv, V domains shown)
VH: QVQLVQSGAEVKKPGASVKVSCKASGYNFTGYYMHWVRQAPGQGLEWMGIIAPSDGSTNYAQKFQGRVTMTRDTSTSTVYMELSSLRSEDTAVYYCARETGDDAFDIWGQGTMVTVSS
VL: not shown
fold binding to target pHLA over minipool of negative control pHLAs [2]: ≥ 3 fold

B22: scFv R3G10-P2C04 (scFv, V domains shown)
VH: QVQLVQSGAEVKKPGASVKVSCKASGGTFSNSIINWVRQAPGQGLEWMGWMNPNSGNTNYAQKFQGRVTMTRDTSTSTVYMELSSLRSEDTAVYYCAREQWPSYWYFDLWGRGTLVTVSS
VL: not shown
fold binding to target pHLA over minipool of negative control pHLAs [2]: ≥ 3 fold

B23: scFv G5-P3G01 (scFv, V domains shown)
VH: QVQLVQSGAEVKKPGASVKVSCKASGGTFSGYLVSWVRQAPGQGLEWMGWINPNSGGTNTAQKFQGRVTMTRDTSTSTVYMELSSLRSEDTAVYYCAREGYGMDVWGQGTTVTVSS
VL: not shown
fold binding to target pHLA over minipool of negative control pHLAs [1]: ≥ 3 fold
